According to article PMC10045489 (Bioengineering, 2023):

Target: T1, receptor-binding domain of the SARS-CoV-2 spike protein fused to the maltose-binding protein (SARS-CoV-2, wild-type (Wuhan-Hu-1 …, UniProt P0DTC2))
T1 construct: also called MBP-RBD; RBD-MBP
Assay: BLI
Details: both partners purified

B1: VHH72 nanobody (VHH)
VHH: QVQLQESGGGLVQAGGSLRLSCAASGRTFSEYAMGWFRQAPGKEREFVATISWSGGSTYYTDSVKGRFTISRDNAKNTVYLQMNSLKPDDTAVYYCAAAGLGTVVSEWDYDYDYWGQGTQVTVSS
notes: not shown: ecotin, N-terminal, cleaved; His-tag, N-terminal, cleaved
- binding result: binds
